# According to a protein production outcome set (Wang et al. 2014):
# Experiment: label from the status in PepcDB records
# 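Further: failed if final PepcDB status was selected cloned or expressed and not failed if soluble or beyond.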
row,Sequence,protein production
1,MKILYIVLDGAADSPTSPRKTLEEASKPNIDSLGSHAVCGMVYTVKPGVAPQSDYATLSLLGYNPDEYYPGRGPLEAFGAGIEMRRGDIALRANFATVDPGTLRIIDRRVGRSLTSREARELASAVDGMELEDGEGTALFRATIGHRGVLVLRHRSKPLSDAISNTDPAYERRGRFSVALEKYEPFIKLSNPLVEDEAAVLAARMLNEFTLKAVEILDSHPVNLAREKRGLLKANAILSRDAGGLPEEKPPSFQERFGLRGASIVEMVVERGISRYIGLDDIRVEIEGRAREEVYREEAARAVEALETHDLVYVHLKGPDEPGHDGSFEGKIRAVEDIDKHFFAPLLDRLSSAGLEPAFVVTSDHATPWDVGAHSGDPVPLMISHQSIQGSIGKFSETVCLRGRLGTIIGGYRIIPKTLSLLAG,not failed
2,MSTQKQEQAFFGLVWLARLTVCLLTVGLALAIDSTATERHRADVRAKWQEKVDDLGLRLRATILQNTQTVWGLAANVAVQPDIGEERFQRLASVIFKLAPELLNIGLAPGFVIKHIYPLDGNEAALGLDLQAQSLSRDQMALLLESRRAVFSGPINLVQGGQGLAARIPIFENDTGRVWGVISTILDLDRLYTAIGLDSLPPEVVFALSTTGSGNIDKGLFFGEPDAAWQEPVSTTMAMPGFSWKLYAQPADGWPDHPDSPWLLRSLLGLVTLIIIAGTLWITTLILRDRQMQLRFWGLFELAPFGIALYDAISGELLQANPGFTRILDSKANNIGYFDDVRSLSGDKQRSEPSISNRLASQVRFTGVEGFFPMADGTLQPLMLHGLRLDLQGKESVIWIIVEDISQRKEAERLKSEFISTVSHELRTPLTSISGALSLLTTNAVGELSGKAQQLLKIAQRNSDQLGFLINDLLDIEKLIAGKMDFNVIEFPVSEAITESLENIQNYATEKNITLNAQELSTTTVKADKQRLAQALNNILSNAIKFSPVNGQIRIWTKLHGQGLRIYVQDEGPGIAPEFRERMFQKFSQADSSDRRSKGGTGLGLAITKELMARMEGDVDFTSEAGQGATFWLEVPAA,failed
3,MTNKYIKLCFIDLVDLKKMSKQNLKIVLFHGFMAREHMQRHWLCYLKKLGYSDIHLYGHLSSAEMLAKQIHSTQNSAQKLVLFGYSQGGFQAVKVAQAFEQLQLPVDLLITIAAGGKGRLLPKQWHYNPRHIPQNVVKSLNFFSLSDSLGTDRCYRDNLIQASHHDQCIENIIFDQSAQVGHIELSRCYSKQRIHGLVKQHLISRIEYELSILE,failed
4,MLNYRQLHYFWVVAKTGSIVRACEQLNLTAQTVSGQISLLEAALGVDLFQRVGRRLEMTEAGRLALPYAEQMFQLGDELESLLRSQPDEQQLLLRIGVADVVPKSIVYRLIAPTMELAEPIRITCREDKLERLLADLAIQRLDLVISDSPMPPHLDIKGYSQKLGECGVTFFATREVAERVGSDFPQCLHGAPLLIPGQETVVRGRLMRWFAEQKIQPRIIGEFDDSALMKAFGKSGSGIFVAPSVIVDEVQGQYGVQVIGQTDAVTESFYAITVERKVRHPGVVAIAESARNQLFTDAG,failed
5,MKEVIAQNAKLSADDLKEILPKANKLEDFAFEKNEDSTISEVFQAKNGSENEGYIIKVSPKGFNGPIDMVVAIDKNREISGVKVLSQAETPGLGAKVEESSFSEKFKGLTIEDNIKIVKTSPSSQGEIQGITGATISSNAVSSGINDAISFYKENVLGEDLSKEKILNLSKINLEGDLKELTIELEEGIDKVSIVSNGEKEIGYAIEASEVGMYEEKPIKFALGISTGGIITGVQIIDHKETAGLGDLIEDENFLNSFIGVSSLDKLSVKENTNEIDLSVYGEVVNVDSISGATKSSMAIIKGITNVINFYNNNLSLEHHHHHH,not failed
6,MGRKVRAYFVHLFTASGVAFAFLAMREVVRVDLDPRWVFGWLTLAVFIDAADGPLARLWDVKLYASRILGKTIDLIVDYLTFTFIPLTLVWRMDWLPGWDGLWVTLAMVASLLGFANTAAKQSQEGFFLGFPSYWNVVAYYVGLLAVEYGAVGAYVSLGSVLTLTVLTLVPVRFVYPNAAPTPWRAIVTVGGVAWLGLLLALLPTFPELPAWGGDWVLGVSFVYPAFYFGLSGWLDWTSRQS,failed
7,MLAIRRGASMPPLNRSDDLMPGIDEIPERRDEVSLGDLLLEVLRFYQQFGRLLIPLAVLCGVLAGVVVATRPLYAVTALLETPQMSLEQWRKLQPMLADRQLVAASLASMTELPPEQRERLQRAFVLKKYWDTRVTYRSAVERDDIRQQVNIDAKSVGALGLEVSLYARDDAAANQQLDAIAQHVRQVVLWGGLRDYLDSLRQQTLEQRPQLQIDQIQQRYAIEQNERQAADMQQLLERYPELRRNEVNTVVSVGDGGGRYLSPLAQIVALQSTIAGTRTTLRQVERELEQLDGKQRFLARVDQRAPGLHLGRALADWVQSCRRAVFGSGTPSGSALSQVASEIDLALSQQRWRAQLVRYRAIPALSPAPVPSRRPALVALAVFLGVLLVASLGLAMYVIARRNGDRHASWSAHADPLFAWLPQRMRGLLLGPTDARPLGSG,failed
8,MSSLLYARVRANARFQQLVARRNRFTLSLFVLILATFYGYIGLVSFWPELIARRLAQGSNMTVGVAAGAFLFVFFCALSAFYVYRANGEFDSLTQALLSGLEEEQGA,failed
9,MPHQKIYLVGAGIEGWEGFGAKALEVIGKAEVLVGHKRHLDIFSDFTGKKQELGDLSILLEQLRSTDKRTVVLGSGDPNFFGIARFLLRNLPKERIEIFPNVTSVQYAFAQIKEPWDDAIFVSVHGRGLKGAVDRIVAAEKVAVLTDKTNSPAAIARELIARGAEGYEAWLCENLGLPGEKFTRTDVKGLLELPAAELNILILIKAWEPQLAQYPVIGIDDDEFATAKKLITKQEVRAVTLSKLRLQDDLVMWDIGAGSASVSIEASNLMPNGRIFALERNPQYLGFIRDNLKKFVARNVTLVEAFAPEGLDDLPDPDRVFIGGSGGMLEEIIDAVDRRLKSEGVIVLNAVTLDTLTKAVEFLEDHGYMVEVACVNVAKTKGLTEYKMFESHNPVYIITAWKSDE,failed
10,MQFLGRSISKSIRPSLNSTARKSWVLSSQQFLSTSSTESSSRTRGGGGGNRAEKSSEEWPRPMEVPYQPKIANSIDLIGYVHQPVQFDSTLDGKFWAGTVISHEPSSDSKSESDSSSNFWIPVLFEGDLAHTANSYLKKNDRVHITGQILGDVIQSGANSDQAHVQLFKSFHGSFSHQVMVRDLHYIEGSKAMPKVLPTLDQNEGVLKHSASVQRGREFGTNLWFDLVDKPNEWCDYREMKQNGSVNPKHPDFKKKDGSQALWLNNAPTEILSELKDVKFDIPKYAKQPKAGEESWKDLVDNMNKWWDNRVDKRTPKSPDFKHKETGVGLWLSDSPSWVLEKLPPPKSKTSDIYGVQEMF,failed
11,MPVRASIEPLTWENAFFGVNSAIVRITSEAPLLTPDALAPWSRVQAKIAASNTGELDALQQLGFSLVEGEVDLALPVNNVSDSGAVVAQETDIPALRQLASAAFAQSRFRAPWYAPDASGRFYAQWIENAVRGTFDHQCLILRAASGDIRGYVSLRELNATDARIGLLAGRGAGAELMQTALNWAYARGKTTLRVATQMGNTAALKRYIQSGANVESTAYWLYR,not failed
12,MQNMKNQVRGSGMDARSNPANVSDGLQNSSGHIGTNTRYRLTKLGEQMARLPIDPKIARILLAAKKHDCMAEILVIASALSIQDPRERPLEARDAAAKAHERFTDKQSDFLTYLNIWDSFQRERDKGLSNKQLVQWCRQYFLSHLRMREWRELHHQLAQTAIEMGLTTKEAAFRRPPEVKQLTSSENAGDQDLSAKLKQKQLDKKQHRTQIRATKEAGYEQIHRALLTGLIANVGMKSPDSNDYTGARGSRFHLFPASALFKAKPKWVMAAELVETTRLYARDVAVIQPEWIEQEAPHLVRYHYFEPHWEQKRGEVVASERVTFYGLTVLPRRPVSYGKVAPEEAREIFIRSALVAQEYDLKADFFVHNKKLIKEITELEHKSRKQDVLVDDEALFAFYHERLPDFYMADSVSEGLCPANPQQTTPSPVGKGWGEGKTVAAQTNFSATAANPLPNPLPQEREQSASVSTVSGSLKTMSCEARLNFCEAKTKTESSLHSQRLSENYTPPFSDGLRPANPQQTTPSPVGEGWGEGKTVAAQTNFSATAANPLPQEREQSASALTVSDDPKPKKQPASQKGRLKPLPLADIRTFEAWLKTAERDNPRLLFLSRDDLMQHAAAHITEEQFPKHWQTADGKFKLSYRFEPHHPLDGVTLTLPLTVLNRISPAALEWLVPGMIREKIQLQIKALPKQIRRICVPVPEFITQFLSQNPDRNAPILPQLAQAIAKTAGDIRILEQINQDEWAAFRLPEHCYFNLRIIDDGEQELAMGRDLIQIQQQLGKAATTTFRDNTQEFERDNVTAWDIGILPESIKFARGKQQLTGYLGLQKEKDGRIALRLFDTSAAAGHAHRLGVIELMKLQLKEQVKDLNKGIQGFTQAAMLLKHINADTLRDDLTQAVCDRAFIGEDKLPRNEKAFKEQIKRARSRLPAVKEALSRYLQETAAAYAELNGKLGKHPLTHLLRLRLQTLLAPGFATRTPWAQWPRLPIYLKAMTLRLEKYSSNPARDAAREADIQELEQMWQEKTDGLAKQGQPVSDGLAAFKWMIEELRVSLFAQELKTPYPVSVKRLLKMWEILL,failed
13,MCAEFVERRLAAILAADVVGYSRLLEANEEETLNALRQHRRELFDPAVAIHGGHIIKVMGDGFLVEFGSVLSAARCAVEIQRGMLERNIGIPGDRHFAFRIGLNLGDIVFDEDDFHGDGINVAVRLQALAAPGGIACSAAVRHEVANKLDLGFADQGAMTVKNISRPVHVYFADWGNAPSSEEVPLTAGGHTRAPVNKPSVAVLPFANISNDPEQDFFSDGITEDLITDLSNVSGLFVLSRNTVFTWKGRSENLQRIAAELGVAYIVEGSVRKAGNQVRINAELIEAASDGHVWAARYDRDLTDIFEMQDEIVKAIVGQLKVKLLPEEKRAIEQAPTESVEAYTHFLRGREYYHIASRSNHLMARQSFARAIELDPGYARAYAGIAVCDARLRSQFGAEIPVEDILANTATALVIDPNLAEAYAAKGFALAVAGNRTEAVSAFAQALSLDANCHEANRYYAEFCVTEGQFELAATHFQRAMEIKPADYGAPIMLVNVLRSLGQIDKASSYARIALKRAEEELRLHPENANVACLGATALAFLGVRDTALEWLARSLATDPDDINIQYNAACTYALLGEIDRAIDLLEVWMPQVGIEMRLWFKNDSDLDPIRSHPRYLKLVSLSE,failed
14,EGDPENGEKLQITIRRGKDGFGFTICCDSPVRVQAVDSGGPAERAGLQQLDTVLQLNERPVEHWKCVELAHEIRSCPSEIILLVWRV,not failed
15,MFRDFRMSLLVAVICLGLAAWWGHTSSMGIWQALWLCLVLSVLEVSLSFDNAVVNAGVLKHMNAFWQKLFLTVGILIAVFGMRLVFPIVIVSVATGMGLVPVMQMALKEPDRYSQVLTDNYPSIAAFGGMFLLLVFLNFLFDQERKLHWLGPVERLVGKLGKADAMSVIVAVSVLLGTKLFLPDGIFQSVLFAGLGGILLYLLVGSVDALFEAEESEDGSMGPAKRSGIAAFLYLEVLDASFSFDGVIGAFAITRDVVIIMLGLAIGAMFVRSMTVYLVHKGTLDEFVFLEHGAHYAIGVLAIIMLVGTVYHVPEVLTGLIGVAFIAASVWSSIRYRKRHHIGPTEI,failed
16,MNRVEPPYDVKEALVFTQKMAQLSKALWKSIEKDWQQWLKPYDLNINEHHILWIAYQLNGASISEIAKFGVMHVSTAFNFSKKLEERGYLRFSKRLNDKRNTYVQLTEEGTEVFWSLLEEFDPTRNAVFKGSQPLYHLFGKFPEVAEMMCMIRHIYGDDFMEIFETSLTNIDNDFESVNGKLKKKAKDSAADEPAEELEPVNS,not failed
